T1: hnRNPDL-2 (soluble) (human, UniProt O14979-2 1-301)
T1 sequence: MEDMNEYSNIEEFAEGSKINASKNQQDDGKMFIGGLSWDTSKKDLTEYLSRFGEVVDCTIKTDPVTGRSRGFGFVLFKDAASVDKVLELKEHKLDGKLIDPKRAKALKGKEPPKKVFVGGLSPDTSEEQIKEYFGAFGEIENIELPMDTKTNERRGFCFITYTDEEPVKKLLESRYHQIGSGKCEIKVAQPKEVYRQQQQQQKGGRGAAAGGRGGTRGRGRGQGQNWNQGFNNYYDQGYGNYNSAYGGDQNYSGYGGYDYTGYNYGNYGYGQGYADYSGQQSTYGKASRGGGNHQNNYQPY


What was measured:
[1] = molecular target: T1, hnRNPDL-2 (soluble); test: EMSA; apparent Kd, Hill fit; 50 nM probe; EMSA: 10 ul, 50 nM probe, 24 h at RT, 8% polyacrylamide gel, buffer not stated; fibril binding: 24 h at RT, spin 16,000 x g at 4 C, pellet wash 50 mM HEPES pH 7.5, 150 mM NaCl; details: protein: recombinant; tags: N-terminal His-SUMO (expression construct); label: fluorescein, printed at 5' side (F-); FITC in peer review file; single strand, 7-mer
[2] = molecular target: the molecule itself; test: cryo-EM structure; helical reconstruction of amyloid fibrils formed at pH 7.5, 300 mM NaCl; single protofilament, cross-beta stacking of subunits; 2.5 Å

Binder | Kd [1] [µM] | binding result [2]
GACUAGC (ssRNA) [F-RNA (F-GACUAGC)] | 22.8 ± 3.95 | –
hnRNPDL-2 (human heterogeneous ribonucleoprotein D-like, isoform 2), wild type (natural protein, UniProt O14979-2 1-301, looked up, Heterogeneous nuclear ribonucleoprotein D-like, human, isoform hnRNPDL-2 of 301 residues (RRM1, RRM2, C-terminal Y/G-rich LCD ~201-285, PY-NLS 281-301; exon 6 = residues 224-280). numbers count on: hnRNPDL-2 (the 301-residue isoform); Cloned in pETite with a His-SUMO N-terminal tag; In the fibril the subunits stack in a single protofilament; also called WT hnRNPDL-2; full-length hnRNPDL-2; …) MEDMNEYSNIEEFAEGSKINASKNQQDDGKMFIGGLSWDTSKKDLTEYLSRFGEVVDCTIKTDPVTGRSRGFGFVLFKDAASVDKVLELKEHKLDGKLIDPKRAKALKGKEPPKKVFVGGLSPDTSEEQIKEYFGAFGEIENIELPMDTKTNERRGFCFITYTDEEPVKKLLESRYHQIGSGKCEIKVAQPKEVYRQQQQQQKGGRGAAAGGRGGTRGRGRGQGQNWNQGFNNYYDQGYGNYNSAYGGDQNYSGYGGYDYTGYNYGNYGYGQGYADYSGQQSTYGKASRGGGNHQNNYQPY | – | binds
